According to patent publication US20250051433A1:

Columns and labels:
[1] = target: human long form TSLP expressed on cell membrane; assay: FACS on cells expressing the membrane human long-form TSLP fusion protein, MFI; ambiguous fit of a flat curve (Bottom 799.3, Top 857.9), see non_binding; unit taken from the concentration axis
[2] = target: human long form TSLP expressed on cell membrane; assay: FACS on cells expressing the membrane human long-form TSLP fusion protein, MFI; fit of a flat curve (Bottom 626.4, Top ~ 628.6), see non_binding; unit taken from the concentration axis
[3] = target: human long form TSLP expressed on cell membrane; assay: FACS on cells expressing the membrane human long-form TSLP fusion protein, MFI; ambiguous fit of a flat curve (Bottom 609.8, Top ~ 596.1), see non_binding; unit taken from the concentration axis
[4] = target: human long form TSLP expressed on cell membrane; assay: FACS on cells expressing the membrane human long-form TSLP fusion protein, MFI; ambiguous fit of a flat curve (~ 906.7, ~ 1190), column headed IC50, see non_binding; unit taken from the concentration axis
[5] = target: human long form TSLP expressed on cell membrane; assay: FACS on cells expressing the membrane human long-form TSLP fusion protein, MFI; fit of a flat curve (Bottom 695.0, Top 1001), see non_binding; unit taken from the concentration axis
[6] = target: membrane short-form huTSLP fusion protein (human); assay: FACS on cells expressing membrane short-form huTSLP, MFI; ambiguous fit of a flat curve (Bottom 692.9, Top 827.7), see non_binding; unit taken from the concentration axis
Chain of membrane short-form huTSLP fusion protein (human) (chain, as listed by the source limits assumed): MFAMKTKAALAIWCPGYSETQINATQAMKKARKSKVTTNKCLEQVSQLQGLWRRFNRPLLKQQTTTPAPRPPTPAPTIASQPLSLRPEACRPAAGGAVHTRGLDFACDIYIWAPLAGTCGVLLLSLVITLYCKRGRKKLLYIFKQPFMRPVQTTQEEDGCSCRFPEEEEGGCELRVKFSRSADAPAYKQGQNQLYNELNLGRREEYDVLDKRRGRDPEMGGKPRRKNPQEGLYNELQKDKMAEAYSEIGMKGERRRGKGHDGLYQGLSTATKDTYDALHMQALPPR

[7] = target: human long-form TSLP protein (Acro, tsp-h5255 or tsp-h52ha) (human) (UniProt Q969D9); assay: ELISA on coated human long-form TSLP, OD450; ambiguous fit of a flat curve (Bottom 0.07414, Top ~ 1078), see non_binding; unit taken from the concentration axis
Chain of human long-form TSLP protein (Acro, tsp-h5255 or tsp-h52ha) (human) (Q969D9 29-159 R127A/R130A limits assumed): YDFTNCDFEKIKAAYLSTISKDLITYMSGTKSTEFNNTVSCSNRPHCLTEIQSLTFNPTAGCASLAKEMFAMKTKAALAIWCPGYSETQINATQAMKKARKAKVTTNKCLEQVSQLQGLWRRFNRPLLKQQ

Chain of human long form TSLP expressed on cell membrane (fusion protein, as listed by the source): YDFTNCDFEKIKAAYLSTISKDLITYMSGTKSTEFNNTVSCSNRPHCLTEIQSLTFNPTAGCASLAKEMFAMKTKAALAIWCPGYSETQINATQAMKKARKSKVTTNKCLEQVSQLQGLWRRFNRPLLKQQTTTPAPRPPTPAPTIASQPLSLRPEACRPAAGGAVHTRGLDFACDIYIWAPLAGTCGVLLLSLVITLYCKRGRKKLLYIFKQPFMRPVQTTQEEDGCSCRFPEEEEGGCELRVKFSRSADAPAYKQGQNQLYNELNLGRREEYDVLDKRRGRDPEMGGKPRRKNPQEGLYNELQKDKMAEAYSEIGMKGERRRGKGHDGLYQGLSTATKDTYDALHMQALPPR

IgG2 Isotype (antibody)
EC50 [1]: 0.0117 µg/mL | EC50 [2]: 5.86 µg/mL | EC50 [3]: 0.322 µg/mL

Isotype (antibody)
EC50 [4]: 0.0411 µg/mL | EC50 [5]: 21.1 µg/mL

Isotype mAb (antibody)
EC50 [6]: 0.0115 µg/mL | EC50 [7]: 40.8 µg/mL
